IntAct's records for PubMed 29892012

B1: Zinc finger protein ZXDC (Homo sapiens), Q2QGD7 (parent)
chain: MDLPALLPAPTARGGQHGGGPGPLRRAPAPLGASPARRRLLLVRGPEDGGPGARPGEASGPSPPPAEDDSDGDSFLVLLEVPHGGAAAEAAGSQEAEPGSRVNLASRPEQGPSGPAAPPGPGVAPAGAVTISSQDLLVRLDRGVLALSAPPGPATAGAAAPRRAPQASGPSTPGYRCPEPQCALAFAKKHQLKVHLLTHGGGQGRRPFKCPLEGCGWAFTTSYKLKRHLQSHDKLRPFGCPVGGCGKKFTTVYNLKAHMKGHEQESLFKCEVCAERFPTHAKLSSHQRSHFEPERPYKCDFPGCEKTFITVSALFSHNRAHFREQELFSCSFPGCSKQYDKACRLKIHLRSHTGERPFICDSDSCGWTFTSMSKLLRHRRKHDDDRRFTCPVEGCGKSFTRAEHLKGHSITHLGTKPFECPVEGCCARFSARSSLYIHSKKHVQDVGAPKSRCPVSTCNRLFTSKHSMKAHMVRQHSRRQDLLPQLEAPSSLTPSSELSSPGQSELTNMDLAALFSDTPANASGSAGGSDEALNSGILTIDVTSVSSSLGGNLPANNSSLGPMEPLVLVAHSDIPPSLDSPLVLGTAATVLQQGSFSVDDVQTVSAGALGCLVALPMKNLSDDPLALTSNSNLAAHITTPTSSSTPRENASVPELLAPIKVEPDSPSRPGAVGQQEGSHGLPQSTLPSPAEQHGAQDTELSAGTGNFYLESGGSARTDYRAIQLAKEKKQRGAGSNAGASQSTQRKIKEGKMSPPHFHASQNSWLCGSLVVPSGGRPGPAPAAGVQCGAQGVQVQLVQDDPSGEGVLPSARGPATFLPFLTVDLPVYVLQEVLPSSGGPAGPEATQFPGSTINLQDLQ
B2: Late cornified envelope protein 1B (Homo sapiens), Q5T7P3 (parent)
chain: MSCQQNQQQCQPPPKCIPKCPPKCLTPRCPPKCPPKCPPVSSCCSVSSGGCCGSSSGGSCGSSSGGCCSSGGGGCCLSHHRRRRSHCHRPQSSGCCSQPSGGSSCCGGGSGQHSGGCC
partner: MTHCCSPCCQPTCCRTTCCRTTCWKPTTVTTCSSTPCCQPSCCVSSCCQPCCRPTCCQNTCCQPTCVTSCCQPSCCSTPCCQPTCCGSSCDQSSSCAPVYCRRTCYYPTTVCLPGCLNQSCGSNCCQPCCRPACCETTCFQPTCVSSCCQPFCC
B3: E3 ubiquitin-protein ligase LNX (Homo sapiens), Q8TBB1 (parent)
chain: MNQPESANDPEPLCAVCGQAHSLEENHFYSYPEEVDDDLICHICLQALLDPLDTPCGHTYCTLCLTNFLVEKDFCPMDRKPLVLQHCKKSSILVNKLLNKLLVTCPFREHCTQVLQRCDLEHHFQTSCKGASHYGLTKDRKRRSQDGCPDGCASLTATAPSPEVSAAATISLMTDEPGLDNPAYVSSAEDGQPAISPVDSGRSNRTRARPFERSTIRSRSFKKINRALSVLRRTKSGSAVANHADQGRENSENTTAPEVFPRLYHLIPDGEITSIKINRVDPSESLSIRLVGGSETPLVHIIIQHIYRDGVIARDGRLLPGDIILKVNGMDISNVPHNYAVRLLRQPCQVLWLTVMREQKFRSRNNGQAPDAYRPRDDSFHVILNKSSPEEQLGIKLVRKVDEPGVFIFNVLDGGVAYRHGQLEENDRVLAINGHDLRYGSPESAAHLIQASERRVHLVVSRQVRQRSPDIFQEAGWNSNGSWSPGPGERSNTPKPLHPTITCHEKVVNIQKDPGESLGMTVAGGASHREWDLPIYVISVEPGGVISRDGRIKTGDILLNVDGVELTEVSRSEAVALLKRTSSSIVLKALEVKEYEPQEDCSSPAALDSNHNMAPPSDWSPSWVMWLELPRCLYNCKDIVLRRNTAGSLGFCIVGGYEEYNGNKPFFIKSIVEGTPAYNDGRIRCGDILLAVNGRSTSGMIHACLARLLKELKGRITLTIVSWPGTFL
partner: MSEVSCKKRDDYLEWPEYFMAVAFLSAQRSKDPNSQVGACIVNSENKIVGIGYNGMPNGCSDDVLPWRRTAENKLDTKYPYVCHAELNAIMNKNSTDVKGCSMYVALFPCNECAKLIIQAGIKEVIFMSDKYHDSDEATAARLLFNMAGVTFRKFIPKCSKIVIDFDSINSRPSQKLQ
B4: Melanoma-associated antigen 8 (Homo sapiens), P43361 (parent)
chain: MLLGQKSQRYKAEEGLQAQGEAPGLMDVQIPTAEEQKAASSSSTLIMGTLEEVTDSGSPSPPQSPEGASSSLTVTDSTLWSQSDEGSSSNEEEGPSTSPDPAHLESLFREALDEKVAELVRFLLRKYQIKEPVTKAEMLESVIKNYKNHFPDIFSKASECMQVIFGIDVKEVDPAGHSYILVTCLGLSYDGLLGDDQSTPKTGLLIIVLGMILMEGSRAPEEAIWEALSVMGLYDGREHSVYWKLRKLLTQEWVQENYLEYRQAPGSDPVRYEFLWGPRALAETSYVKVLEHVVRVNARVRISYPSLHEEALGEEKGV
B5: Forkhead box protein P3 (Homo sapiens), Q9BZS1 (parent)
chain: MPNPRPGKPSAPSLALGPSPGASPSWRAAPKASDLLGARGPGGTFQGRDLRGGAHASSSSLNPMPPSQLQLPTLPLVMVAPSGARLGPLPHLQALLQDRPHFMHQLSTVDAHARTPVLQVHPLESPAMISLTPPTTATGVFSLKARPGLPPGINVASLEWVSREPALLCTFPNPSAPRKDSTLSAVPQSSYPLLANGVCKWPGCEKVFEEPEDFLKHCQADHLLDEKGRAQCLLQREMVQSLEQQLVLEKEKLSAMQAHLAGKMALTKASSVASSDKGSCCIVAAGSQGPVVPAWSGPREAPDSLFAVRRHLWGSHGNSTFPEFLHNMDYFKFHNMRPPFTYATLIRWAILEAPEKQRTLNEIYHWFTRMFAFFRNHPATWKNAIRHNLSLHKCFVRVESEKGAVWTVDELEFRKKRSQRPSRCSNPTPGP
B6: F-box only protein 11 (Homo sapiens), Q86XK2 (parent)
chain: MNSVRAANRRPRRVSRPRPVQQQQQQPPQQPPPQPPQQQPPQQQPPPPPQQQQQQQPPPPPPPPPPLPQERNNVGERDDDVPADMVAEESGPGAQNSPYQLRRKTLLPKRTACPTKNSMEGASTSTTENFGHRAKRARVSGKSQDLSAAPAEQYLQEKLPDEVVLKIFSYLLEQDLCRAACVCKRFSELANDPILWKRLYMEVFEYTRPMMHPEPGKFYQINPEEYEHPNPWKESFQQLYKGAHVKPGFAEHFYSNPARYKGRENMLYYDTIEDALGGVQEAHFDGLIFVHSGIYTDEWIYIESPITMIGAAPGKVADKVIIENTRDSTFVFMEGSEDAYVGYMTIRFNPDDKSAQHHNAHHCLEITVNCSPIIDHCIIRSTCTVGSAVCVSGQGACPTIKHCNISDCENVGLYITDHAQGIYEDNEISNNALAGIWVKNHGNPIIRRNHIHHGRDVGVFTFDHGMGYFESCNIHRNRIAGFEVKAYANPTVVRCEIHHGQTGGIYVHEKGRGQFIENKIYANNFAGVWITSNSDPTIRGNSIFNGNQGGVYIFGDGRGLIEGNDIYGNALAGIQIRTNSCPIVRHNKIHDGQHGGIYVHEKGQGVIEENEVYSNTLAGVWVTTGSTPVLRRNRIHSGKQVGVYFYDNGHGVLEDNDIYNHMYSGVQIRTGSNPKIRRNKIWGGQNGGILVYNSGLGCIEDNEIFDNAMAGVWIKTDSNPTLRRNKIHDGRDGGICIFNGGRGLLEENDIFRNAQAGVLISTNSHPILRKNRIFDGFAAGIEITNHATATLEGNQIFNNRFGGLFLASGVNVTMKDNKIMNNQDAIEKAVSRGQCLYKISSYTSYPMHDFYRCHTCNTTDRNAICVNCIKKCHQGHDVEFIRHDRFFCDCGAGTLSNPCTLAGEPTHDTDTLYDSAPPIESNTLQHN
B7: Methanethiol oxidase (Homo sapiens), Q13228 (parent)
chain: MATKCGNCGPGYSTPLEAMKGPREEIVYLPCIYRNTGTEAPDYLATVDVDPKSPQYCQVIHRLPMPNLKDELHHSGWNTCSSCFGDSTKSRTKLVLPSLISSRIYVVDVGSEPRAPKLHKVIEPKDIHAKCELAFLHTSHCLASGEVMISSLGDVKGNGKGGFVLLDGETFEVKGTWERPGGAAPLGYDFWYQPRHNVMISTEWAAPNVLRDGFNPADVEAGLYGSHLYVWDWQRHEIVQTLSLKDGLIPLEIRFLHNPDAAQGFVGCALSSTIQRFYKNEGGTWSVEKVIQVPPKKVKGWLLPEMPGLITDILLSLDDRFLYFSNWLHGDLRQYDISDPQRPRLTGQLFLGGSIVKGGPVQVLEDEELKSQPEPLVVKGKRVAGGPQMIQLSLDGKRLYITTSLYSAWDKQFYPDLIREGSVMLQVDVDTVKGGLKLNPNFLVDFGKEPLGPALAHELRYPGGDCSSDIWI
partner: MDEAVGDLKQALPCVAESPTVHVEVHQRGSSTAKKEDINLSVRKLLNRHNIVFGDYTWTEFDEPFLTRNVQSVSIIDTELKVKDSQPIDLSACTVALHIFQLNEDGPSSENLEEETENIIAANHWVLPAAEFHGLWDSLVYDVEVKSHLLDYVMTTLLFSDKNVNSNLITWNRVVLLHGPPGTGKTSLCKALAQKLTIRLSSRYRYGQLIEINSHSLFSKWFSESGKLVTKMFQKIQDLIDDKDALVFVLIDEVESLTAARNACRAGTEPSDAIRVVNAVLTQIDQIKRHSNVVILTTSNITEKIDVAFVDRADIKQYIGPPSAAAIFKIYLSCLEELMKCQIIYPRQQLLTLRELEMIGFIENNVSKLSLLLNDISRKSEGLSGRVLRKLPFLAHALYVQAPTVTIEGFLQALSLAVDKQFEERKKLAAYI
B8: MOB kinase activator 3C (Homo sapiens), Q70IA8 (parent)
chain: MALCLKQVFAKDKTFRPRKRFEPGTQRFELYKKAQASLKSGLDLRSVVRLPPGENIDDWIAVHVVDFFNRINLIYGTMAERCSETSCPVMAGGPRYEYRWQDERQYRRPAKLSAPRYMALLMDWIEGLINDEEVFPTRVGVPFPKNFQQVCTKILTRLFRVFVHVYIHHFDSILSMGAEAHVNTCYKHFYYFIREFSLVDQRELEPLREMTERICH
partner: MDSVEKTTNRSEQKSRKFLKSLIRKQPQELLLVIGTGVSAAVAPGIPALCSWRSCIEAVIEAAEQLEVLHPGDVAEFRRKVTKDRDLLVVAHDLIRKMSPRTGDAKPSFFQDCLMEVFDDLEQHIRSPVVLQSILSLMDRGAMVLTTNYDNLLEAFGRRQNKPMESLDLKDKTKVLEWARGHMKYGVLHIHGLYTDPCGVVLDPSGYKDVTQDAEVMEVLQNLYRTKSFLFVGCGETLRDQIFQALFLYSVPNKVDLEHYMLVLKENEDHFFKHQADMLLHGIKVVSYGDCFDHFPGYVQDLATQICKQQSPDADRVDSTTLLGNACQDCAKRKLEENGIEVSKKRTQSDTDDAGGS
B9: Consortin (Homo sapiens), Q6PJW8 (parent)
chain: MDDSDTPTYYLQIEPQDGCHPGDSVERSVTCLPSASDENENQLDGDGHEHLTSSDSAMGKPQVSEQDSLNNNESCTLSCEVAAGENLQNTLCEASRDEQAFLGKDKKIPGKRSPRSKKGTAKKIPPGLFSGDIAPLMQEKVLSAVTYAVDDEEAAEVNANEQPEAPKLVLQSLFSLIRGEVEQLDSRALPLCLHQIAESYFQEEDYEKAMKFIQLERLYHEQLLANLSAIQEQWETKWKTVQPHTVTALRNSEKGFNGEDFERLTKICATHQDPLLSKHKIAAVEKSQERKCSTQLLVSEDPKEGGATTKESESKTCLGTESSKESQHTVEPLGSSPCCHQMDVQTDSPSLSVTAGKDHMEELLCSAEATLALHTQSSETAGSPSGPDSSEDACEDDSRLQLAQTEACQDVARIEGIAEDPKVFLSSKSKTEPLISPGCDRIPPALISEGKYSQAQRKELRLPLRDASEALPTDQLENNELNELQQPDLTDSDGKSPQAQADSDGSENVLCGNNQISDLGILLPEVCMAPEEKGDKDDQLNKETEDYLNSLLEGCLKDTEDSLSYEDNQDDDSDLLQDLSPEEASYSLQENLPSDESCLSLDDLAKRIEIAEVVPTEGLVSILKKRNDTVGDHPAQMQHKPSKRRVRFQEIDDSLDQDEVGGGSCILLVLLCIATVFLSVGGTALYCTFGDMESPVCTDFADNMDFYYTKLLQGVAELKHWIYLS
B10: Isoform 2 of Synaptoporin (Homo sapiens), Q8TBG9-2 (parent)
chain: MDPVSQLASAGTFRVLKEPLAFLRALELLFAIFAFATCGGYSGGLRLSVDCVNKTESNLSIDIAFAYPFRLHQVTFEVPTCEGKERQKLALIGDSSSSAEFFVTVAVFAFLYSLAATVVYIFFQNKYRENNRGPLIDFIVTVVFSFLWLVGSSAWAKGLSDVKVATDPKEVLLLMSACKQPSNKCMAIHSPVMSSLNTSVVFGFLNFILWAGNIWFVFKETGWHSSGQRYLSDPMEKHSSSYNQGGYNQDSYGSSSGYSQQASLGPTSDEFGQQPTGPTSFTNQI

Variants of: B1
Settings: with wdr5_human WDR5, P61964

Variant | effect of a mutation on the interaction
T589M | with no effect

Variants of: B2
Settings: with kra94_human KRTAP9-4, Q9BYQ2

Variant | effect of a mutation on the interaction
C16Y | disrupting interaction strength

Variants of: B3
Settings: with dctd_human DCTD

Variant | effect of a mutation on the interaction
E295K | disrupting interaction strength

Variants of: B4
Settings: with bex5_human BEX5, Q5H9J7
Chain of bex5_human BEX5, Q5H9J7 (Q5H9J7 whole entry): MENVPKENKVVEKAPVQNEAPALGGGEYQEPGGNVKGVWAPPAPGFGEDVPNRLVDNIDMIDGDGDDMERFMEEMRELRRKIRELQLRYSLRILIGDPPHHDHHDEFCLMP

Variant | effect of a mutation on the interaction
R218C | with no effect

Variants of: B5
Settings: with pr20e_human PRR20E

Variant | effect of a mutation on the interaction
T108M | with no effect

Variants of: B5
Settings: with rbpms_human RBPMS

Variant | effect of a mutation on the interaction
T108M | with no effect

Variants of: B6
Settings: with skp1_human SKP1, P63208
Chain of skp1_human SKP1, P63208 (P63208 whole entry): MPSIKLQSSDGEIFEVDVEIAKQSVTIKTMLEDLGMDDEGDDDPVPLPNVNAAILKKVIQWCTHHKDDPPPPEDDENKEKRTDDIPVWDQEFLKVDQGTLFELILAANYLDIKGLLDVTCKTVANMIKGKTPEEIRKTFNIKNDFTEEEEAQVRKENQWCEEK

Variant | effect of a mutation on the interaction
Y692F | with no effect

Variants of: B7
Settings: with pch2_human TRIP13, Q15645

Variant | effect of a mutation on the interaction
R398C | with no effect

Variants of: B8
Settings: with FAM118A

Variant | effect of a mutation on the interaction
I173F | disrupting interaction strength

Variants of: B9
Settings: with rop1a_human ROPN1, Q9HAT0
Chain of rop1a_human ROPN1, Q9HAT0 (Q9HAT0 whole entry): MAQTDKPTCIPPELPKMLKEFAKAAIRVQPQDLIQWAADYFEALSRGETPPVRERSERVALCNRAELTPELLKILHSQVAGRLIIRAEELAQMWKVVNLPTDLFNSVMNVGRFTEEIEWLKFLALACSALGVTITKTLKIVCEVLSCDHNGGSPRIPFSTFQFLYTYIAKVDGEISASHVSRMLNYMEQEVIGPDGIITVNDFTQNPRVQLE

Variant | effect of a mutation on the interaction
V25M | disrupting interaction strength

Variants of: B10
Settings: with creb3_human CREB3, O43889
Chain of creb3_human CREB3, O43889 (O43889 whole entry): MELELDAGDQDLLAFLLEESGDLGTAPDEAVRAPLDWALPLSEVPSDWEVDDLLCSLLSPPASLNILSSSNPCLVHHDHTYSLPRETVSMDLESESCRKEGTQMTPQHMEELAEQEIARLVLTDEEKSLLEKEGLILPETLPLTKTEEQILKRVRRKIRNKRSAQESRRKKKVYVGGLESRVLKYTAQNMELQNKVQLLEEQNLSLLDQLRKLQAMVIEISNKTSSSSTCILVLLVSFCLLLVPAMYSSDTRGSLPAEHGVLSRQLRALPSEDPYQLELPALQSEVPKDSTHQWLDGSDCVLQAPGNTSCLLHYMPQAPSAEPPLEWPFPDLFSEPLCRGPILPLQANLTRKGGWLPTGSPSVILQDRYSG

Variant | effect of a mutation on the interaction
A115P | with no effect
